Experiment [1] concerns the target HLA-DR4 (DRB*0401), purified from B-lymphoblastic cell line BSM (human). The experiment can be described thus: competition with fluorescent HA308-319 Y→F on purified HLA-DR4.
The target in experiment [2] is HLA-DR7 (DRB1*0701), purified from B-lymphoblastic cell line Pitout (human). The experiment can be described thus: competition with fluorescent Ii 80-103 on purified HLA-DR7.
The target in experiment [3] is HLA-DR1 (DRB*0101), purified from B-lymphoblastic cell line LG2.1 (human). The experiment can be described thus: competition with fluorescent HA 308-319 on purified HLA-DR1.
For experiment [4], the target named is HLA-DR2 (DRB1*0201 [sic]), purified from B-lymphoblastic cell line IWB (human). The experiment can be described thus: competition with fluorescent HA 308-319 on purified HLA-DR2.
For experiment [5], the target named is T1, HLA-DR3 (DRB*0301), purified from B-lymphoblastic cell line HAR (human).
T1 chain: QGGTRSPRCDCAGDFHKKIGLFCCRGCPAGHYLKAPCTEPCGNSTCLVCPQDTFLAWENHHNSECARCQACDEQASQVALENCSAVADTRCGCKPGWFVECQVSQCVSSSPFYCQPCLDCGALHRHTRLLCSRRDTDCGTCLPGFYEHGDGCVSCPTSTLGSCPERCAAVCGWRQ
The experiment can be described thus: competition with fluorescent hsp65 3-13 on purified HLA-DR3.

From patent US9115185 come the findings set out here.

The IC50 is the concentration at which inhibition is half-maximal.

B1: HPV16 E2 peptide 301-330 (peptide)
peptide: LRYRFKKHCTLYTAVSSTWHWTGHNVKHKS
modifications: not checked
B1: the IC50 in experiment [1] is 10 µM.

B2: HPV16 E7 peptide 77-98, P03129 77-98 (peptide)
peptide: RTLEDLLMGTLGIVCPICSQKP
modifications: not checked
As for B2, the IC50 in experiment [2] is 0.9 µM; in experiment [3], 46 µM; in experiment [4], 22 µM.

B3: HPV16 E7 peptide 21-42, P03129 21-42 (peptide)
peptide: DLYCYEQLNDSSEEEDEIDGPA
modifications: not checked
Consider B3, for which, in experiment [4], the IC50 stood at 12 µM.

B4: HPV16 E2 peptide 331-365 (peptide)
peptide: AIVTLTYDSEWQRDQFLSQVKIPKTITVSTGFMSI
modifications: not checked
For the molecule B4, the IC50 turned out to be 10 µM in experiment [5] and 15 µM in experiment [1].

B5: HPV16 E7 peptide 11-32, P03129 11-32 (peptide)
peptide: YMLDLQPETTDLYCYEQLNDSS
modifications: not checked
With B5, the IC50 in experiment [5] was determined as 50 µM.

B6: HPV16 E7 peptide 51-72, P03129 51-72 (peptide)
peptide: HYNIVTFCCKCDSTLRLCVQST
modifications: not checked
In the case of B6, the values for the IC50 in experiment [2], in experiment [3] and in experiment [5] were 11 µM, 70 µM and 50 µM, respectively.

B7: HPV16 E7 peptide 61-82, P03129 61-82 (peptide)
peptide: CDSTLRLCVQSTHVDIRTLEDL
modifications: not checked
Consider B7, for which the IC50 in experiment [4] came out at 15 µM; in experiment [5], 65 µM.

B8: HPV16 E7 peptide 41-62, P03129 41-62 (peptide)
peptide: PAGQAEPDRAHYNIVTFCCKCD
modifications: not checked
For the molecule B8, the IC50 came to 7.4 µM in experiment [3], 50 µM in experiment [4], 55 µM in experiment [5] and 38 µM in experiment [1].

B9: HPV16 E7 peptide 71-92, P03129 71-92 (peptide)
peptide: STHVDIRTLEDLLMGTLGIVCP
modifications: not checked
For the molecule B9, the IC50 came out at 12 µM in experiment [3] and 2 µM in experiment [4].

B10: HPV16 E2 peptide 316-345 (peptide)
peptide: SSTWHWTGHNVKHKSAIVTLTYDSEWQRDQ
modifications: not checked
For B10, the IC50 in experiment [5] worked out at 30 µM.

B11: HPV16 E7 peptide 1-22, P03129 1-22 (peptide)
peptide: MHGDTPTLHEYMLDLQPETTDL
modifications: not checked
For B11, the IC50 in experiment [2] was 7 µM; in experiment [4], 10 µM; in experiment [5], 0.8 µM; in experiment [1], 30 µM.

B12: HPV16 E2 peptide 271-300 (peptide)
peptide: FNSSHKGRINCNSNTTPIVHLKGDANTLKC
modifications: not checked
Consider B12, for which the IC50 in experiment [5] is 37 µM.
